Experimental data published in US20240294637A1 (DENDROCYTE BIOTECH, published 2024).

What was measured:
[1] = target: T1, CD300a on CHO transfectant cell surface (UniProt Q9UGN4 18-299, limits assumed); test: flow cytometry on CD300a CHO transfectants
T1 construct: whole, on cells; Said to be 'similarly expressed in CHO cells'; also called CD300a transfected cells
T1 sequence (looked up): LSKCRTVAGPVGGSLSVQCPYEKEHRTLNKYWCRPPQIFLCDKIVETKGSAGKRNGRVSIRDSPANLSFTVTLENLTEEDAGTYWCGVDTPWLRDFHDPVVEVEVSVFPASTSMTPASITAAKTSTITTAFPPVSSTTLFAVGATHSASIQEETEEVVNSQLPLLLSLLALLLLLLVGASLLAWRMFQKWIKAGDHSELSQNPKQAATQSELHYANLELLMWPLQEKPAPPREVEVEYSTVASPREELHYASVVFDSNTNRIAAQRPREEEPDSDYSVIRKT

[2] = target: T2, CD300f-Ig fusion protein (recombinant CD300f-Fc protein, Sino Biologicals) (human, UniProt Q8TDQ1 20-156); test: Bio-Layer Interferometry (BLItz), CD300f-Fc on AHC biosensor, DCR-2 at 8.333, 16.67, 33.33, 66.67 and 0 nM, global 1:1 fit; same value in rows Index 1 to 4
T2 construct: domain: CD300f Ig-like domain; Bought reagent; also called CD300f-Fc recombinant protein; CD300f Ig-like domain; not shown: Ig Fc part (captured by goat anti-human Ig Fc / human IgG Fc capture sensor)
T2 sequence (looked up): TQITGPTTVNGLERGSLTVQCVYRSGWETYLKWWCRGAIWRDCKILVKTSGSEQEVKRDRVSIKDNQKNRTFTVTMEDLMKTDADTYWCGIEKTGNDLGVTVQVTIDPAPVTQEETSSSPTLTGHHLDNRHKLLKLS
Description: (§1) DCR-2 was assessed for affinity for CD300f using a BLItz System (Fortebio, Pall Life Sciences). CD300f-Fc recombinant protein was immobilized to a human IgG Fc capture sensor. A five point dilution series of each mAb was tested for association and dissociation. Kinetic rate constants were estimated using BLItz Pro software with a global fitting 1:1 binding model.
(§2) The kinetics of binding of DCR-2 to CD300f-Fc recombinant protein was determined using Bio-Layer Interferometry analysis on a BLItz System (Fortebio, Pall Life Sciences).

[3] = target: T2, CD300f-Ig fusion protein (recombinant …); test: Bio-Layer Interferometry (BLItz), CD300f-Fc on AHC biosensor, DCR-2 at 8.333, 16.67, 33.33, 66.67 and 0 nM, global 1:1 fit; same value in rows Index 1 to 4; Ka Error 7.087e3
Description: as §1, §2

[4] = target: CD300f^L4 expressed in CHO cells (isoform of CD300f which includes the amino acid sequence …) (human) (UniProt Q8TDQ1); test: flow cytometry MFI ratio, CD300f^L4 against CD300f^S4 CHO transfectants
[5] = target: T2, CD300f-Ig fusion protein (recombinant …); test: Bio-Layer Interferometry (BLItz), CD300f-Fc on AHC biosensor, DCR-2 at 8.333, 16.67, 33.33, 66.67 and 0 nM, global 1:1 fit; same value in rows Index 1 to 4; Kd Error 3.58e-5
Description: as §1, §2

binding result [1]: no binding
Kd [2]: 366 pM
kon [3]: 514000 M⁻¹ s⁻¹
fold difference in binding compared to CD300f^S4 [4]: < 2 fold
koff [5]: 0.000188 s⁻¹
B1: Monoclonal antibody DCR-2 (antibody, V domains shown)
VH: MESGGGLVQPGGPLKLSCAASGFGFSGSWMSWVRQAPGKGLEWIGQINPDSSTINYTPSLKDKFIISRDNAKNTLYLQINKVRSEDTALYYCARRGFFEGYSAWFAYWGQGTLVTV
VL: ILMTQTPKFLLVSAGDRVTITCKASQSVSNDVAWYQQKPGQSPSLLIYYASNRNTGVPDRFTGSGYETDFTFTISTVQAEDLAVYFCQQDYTSPWTFGGGTKLEIKR
notes: also called mAb DCR-2
